What follows are sequences tested on Escherichia coli TOP10 (assay: shrunken log2 fold change of peptide-encoding DNA abundance (4.5 h post-induction vs induction); higher = less antimicrobial activity (less host growth inhibition)). Conditions: time post-induction: 4.5 h; library: site-saturation at positions 5, 18, 19, 20.
RRIRARPPRLPRPRPRPHWRPRP was tested, and the “shrunken log2 fold change” value was 0.319.
RRIRGRPPRLPRPRPRPPAHPRP was tested, and the “shrunken log2 fold change” value was 1.02.
With RRIRFRPPRLPRPRPRPWKLPRP the “shrunken log2 fold change” value was -0.0164.
For RRIRWRPPRLPRPRPRPGMHPRP, the “shrunken log2 fold change” value was 0.343.
For RRIRNRPPRLPRPRPRPKMMPRP, the “shrunken log2 fold change” value was -0.249.
RRIRQRPPRLPRPRPRPHRYPRP was tested, and the “shrunken log2 fold change” value was -0.812.
With RRIRSRPPRLPRPRPRPVYDPRP the “shrunken log2 fold change” value was -0.227.
In the case of RRIRGRPPRLPRPRPRPCPGPRP, the “shrunken log2 fold change” value is reported as -0.0819.
In the case of RRIRKRPPRLPRPRPRPGFTPRP, the “shrunken log2 fold change” value is reported as 0.0173.
For RRIRIRPPRLPRPRPRPHALPRP, the “shrunken log2 fold change” value was -0.127.
With RRIRGRPPRLPRPRPRPNCPPRP the “shrunken log2 fold change” value was -0.161.
In the case of RRIRDRPPRLPRPRPRPSQNPRP, the “shrunken log2 fold change” value is reported as 0.113.
For RRIRNRPPRLPRPRPRPYYMPRP, the “shrunken log2 fold change” value was -0.416.
RRIRSRPPRLPRPRPRPIHKPRP was tested, and the “shrunken log2 fold change” value was -0.165.
RRIRCRPPRLPRPRPRPNWWPRP was tested, and the “shrunken log2 fold change” value was 0.32.
For RRIRARPPRLPRPRPRPAILPRP, the “shrunken log2 fold change” value was -0.087.
In the case of RRIRARPPRLPRPRPRPGEMPRP, the “shrunken log2 fold change” value is reported as 0.228.
RRIRTRPPRLPRPRPRPERKPRP was tested, and the “shrunken log2 fold change” value was 0.0268.
For RRIRCRPPRLPRPRPRPLVHPRP, the “shrunken log2 fold change” value was -0.075.
With RRIRSRPPRLPRPRPRPIQIPRP the “shrunken log2 fold change” value was -0.0243.
In the case of RRIRFRPPRLPRPRPRPQYTPRP, the “shrunken log2 fold change” value is reported as -0.616.
RRIRARPPRLPRPRPRPNFNPRP was tested, and the “shrunken log2 fold change” value was -0.0686.
In the case of RRIRFRPPRLPRPRPRPVGPPRP, the “shrunken log2 fold change” value is reported as 0.405.
With RRIRIRPPRLPRPRPRPECFPRP the “shrunken log2 fold change” value was 0.042.
RRIRKRPPRLPRPRPRPVLGPRP was tested, and the “shrunken log2 fold change” value was 0.977.
RRIRWRPPRLPRPRPRPNPYPRP was tested, and the “shrunken log2 fold change” value was -0.133.
RRIRMRPPRLPRPRPRPCWCPRP was tested, and the “shrunken log2 fold change” value was -7.44e-05.
RRIRMRPPRLPRPRPRPRWLPRP was tested, and the “shrunken log2 fold change” value was 0.459.
RRIRTRPPRLPRPRPRPCGHPRP was tested, and the “shrunken log2 fold change” value was -0.14.
For RRIRARPPRLPRPRPRPYKFPRP, the “shrunken log2 fold change” value was -0.279.
In the case of RRIRLRPPRLPRPRPRPDLRPRP, the “shrunken log2 fold change” value is reported as -0.0717.
In the case of RRIRNRPPRLPRPRPRPYLCPRP, the “shrunken log2 fold change” value is reported as -0.0174.
RRIRKRPPRLPRPRPRPNWEPRP was tested, and the “shrunken log2 fold change” value was 0.0515.
RRIRSRPPRLPRPRPRPNGNPRP was tested, and the “shrunken log2 fold change” value was -0.384.
For RRIRERPPRLPRPRPRPWMQPRP, the “shrunken log2 fold change” value was -0.327.
In the case of RRIRKRPPRLPRPRPRPWPYPRP, the “shrunken log2 fold change” value is reported as -0.146.
For RRIRNRPPRLPRPRPRPRDRPRP, the “shrunken log2 fold change” value was -0.0372.
In the case of RRIRNRPPRLPRPRPRPEDFPRP, the “shrunken log2 fold change” value is reported as 0.0401.
In the case of RRIRIRPPRLPRPRPRPWKQPRP, the “shrunken log2 fold change” value is reported as -0.00674.
For RRIRERPPRLPRPRPRPLHVPRP, the “shrunken log2 fold change” value was -0.268.
RRIRRRPPRLPRPRPRPQLCPRP was tested, and the “shrunken log2 fold change” value was 0.559.
With RRIRFRPPRLPRPRPRPVAGPRP the “shrunken log2 fold change” value was 0.128.
For RRIRWRPPRLPRPRPRPRHLPRP, the “shrunken log2 fold change” value was 0.11.
For RRIRFRPPRLPRPRPRPVYRPRP, the “shrunken log2 fold change” value was -0.285.
For RRIRVRPPRLPRPRPRPSLNPRP, the “shrunken log2 fold change” value was -0.416.
RRIRKRPPRLPRPRPRPNETPRP was tested, and the “shrunken log2 fold change” value was 0.118.
For RRIRNRPPRLPRPRPRPPWMPRP, the “shrunken log2 fold change” value was -0.00995.
RRIRHRPPRLPRPRPRPQWTPRP was tested, and the “shrunken log2 fold change” value was -0.00992.
With RRIRDRPPRLPRPRPRPQAKPRP the “shrunken log2 fold change” value was -0.0241.
RRIRLRPPRLPRPRPRPDIRPRP was tested, and the “shrunken log2 fold change” value was -0.15.
For RRIRCRPPRLPRPRPRPSEMPRP, the “shrunken log2 fold change” value was -0.286.
RRIRYRPPRLPRPRPRPTERPRP was tested, and the “shrunken log2 fold change” value was -0.532.
For RRIRCRPPRLPRPRPRPDCNPRP, the “shrunken log2 fold change” value was -0.219.
With RRIRRRPPRLPRPRPRPRLCPRP the “shrunken log2 fold change” value was 0.472.
For RRIRSRPPRLPRPRPRPMGWPRP, the “shrunken log2 fold change” value was 0.358.
With RRIRTRPPRLPRPRPRPRQIPRP the “shrunken log2 fold change” value was 0.0896.
For RRIRCRPPRLPRPRPRPVSPPRP, the “shrunken log2 fold change” value was 0.198.
In the case of RRIRTRPPRLPRPRPRPIRYPRP, the “shrunken log2 fold change” value is reported as -0.0148.
RRIRDRPPRLPRPRPRPCTAPRP was tested, and the “shrunken log2 fold change” value was 0.00714.
With RRIRNRPPRLPRPRPRPKWMPRP the “shrunken log2 fold change” value was -0.19.
RRIRWRPPRLPRPRPRPRKYPRP was tested, and the “shrunken log2 fold change” value was 0.0119.
In the case of RRIRKRPPRLPRPRPRPTEWPRP, the “shrunken log2 fold change” value is reported as 0.0407.
With RRIRTRPPRLPRPRPRPVIGPRP the “shrunken log2 fold change” value was 0.13.
In the case of RRIRIRPPRLPRPRPRPDFCPRP, the “shrunken log2 fold change” value is reported as -0.42.
In the case of RRIRDRPPRLPRPRPRPTSGPRP, the “shrunken log2 fold change” value is reported as 0.151.
With RRIRMRPPRLPRPRPRPTPQPRP the “shrunken log2 fold change” value was 1.31.
For RRIRDRPPRLPRPRPRPKMRPRP, the “shrunken log2 fold change” value was -0.013.
With RRIRTRPPRLPRPRPRPSTIPRP the “shrunken log2 fold change” value was -0.386.
RRIRCRPPRLPRPRPRPQWHPRP was tested, and the “shrunken log2 fold change” value was 0.0206.
In the case of RRIRWRPPRLPRPRPRPLWSPRP, the “shrunken log2 fold change” value is reported as -0.13.
RRIRHRPPRLPRPRPRPHDKPRP was tested, and the “shrunken log2 fold change” value was -0.293.
In the case of RRIRLRPPRLPRPRPRPILFPRP, the “shrunken log2 fold change” value is reported as -0.0559.
In the case of RRIRCRPPRLPRPRPRPDFRPRP, the “shrunken log2 fold change” value is reported as 0.00204.
With RRIRVRPPRLPRPRPRPAWDPRP the “shrunken log2 fold change” value was 0.258.
RRIRWRPPRLPRPRPRPTYEPRP was tested, and the “shrunken log2 fold change” value was 0.207.
For RRIRNRPPRLPRPRPRPNMMPRP, the “shrunken log2 fold change” value was -0.25.
For RRIRMRPPRLPRPRPRPYCSPRP, the “shrunken log2 fold change” value was -0.122.
For RRIRKRPPRLPRPRPRPQLSPRP, the “shrunken log2 fold change” value was -0.272.
With RRIRGRPPRLPRPRPRPASEPRP the “shrunken log2 fold change” value was 1.13.
With RRIRIRPPRLPRPRPRPIPAPRP the “shrunken log2 fold change” value was -0.0353.
RRIRARPPRLPRPRPRPMEAPRP was tested, and the “shrunken log2 fold change” value was -0.047.
In the case of RRIRIRPPRLPRPRPRPINGPRP, the “shrunken log2 fold change” value is reported as -0.383.
In the case of RRIRPRPPRLPRPRPRPFDMPRP, the “shrunken log2 fold change” value is reported as 0.08.
For RRIRERPPRLPRPRPRPCLTPRP, the “shrunken log2 fold change” value was -0.0208.
In the case of RRIRTRPPRLPRPRPRPCGSPRP, the “shrunken log2 fold change” value is reported as 0.00855.
RRIRDRPPRLPRPRPRPMSNPRP was tested, and the “shrunken log2 fold change” value was -0.0263.
For RRIRVRPPRLPRPRPRPYEHPRP, the “shrunken log2 fold change” value was -0.118.
With RRIRGRPPRLPRPRPRPTKCPRP the “shrunken log2 fold change” value was 0.684.
RRIRYRPPRLPRPRPRPNLRPRP was tested, and the “shrunken log2 fold change” value was -0.341.
In the case of RRIRERPPRLPRPRPRPNEYPRP, the “shrunken log2 fold change” value is reported as -0.726.
For RRIRNRPPRLPRPRPRPGVPPRP, the “shrunken log2 fold change” value was 0.457.

From the supplement of paper PMC9112550, “Optimization of the antimicrobial peptide Bac7 by deep mutational scanning” (BMC Biology, 2022)
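Note: peptides expressed intracellularly from a pBAD plasmid library in pooled LB shake-flask culture, induced with 0.3% L-arabinose, DNA abundance read by NGS, three biological replicates, DESeq2 with apeglm shrinkage.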
